Values quoted from earlier work in publication PMC9038201.

Molecular target: ubiquitin (Homo sapiens) (UniProt P0CG47)

PLpro (from UniProt P0DTD1)
Kd: 120 µM
